Patent US20110091968A1 (KABUSHIKI KAISHA HAYASHIBARA SEIBUTSU KAGAKU KENKYUJO, published 2011)
Each block holds one binder with its values, some of them ahead of it.

Experiments:
Assay in all cases: Western blotting
[1] = target: T1, recombinant human IFNα subtype α1 (human, UniProt P0DY56 24-189)
T1 construct: also called rIFNα1; IFNα1
Source text: (§1) Proteins, contained in a part of the gel ranging from about 20 to about 29 kilo daltons (abbreviated as “kDa”, hereinafter) corresponding to the molecular weights of the proteins of IFNs, were transferred to a nitrocellulose membrane and soaked in “BlockAce”, a product name of a blocking solution to inhibit non-specific reaction commercialized by Dainippon Sumitomo Pharma, Co., Ltd., Tokyo, Japan. The resulting nitrocellulose membrane after the blocking treatment was soaked in a solution, containing 2 μg/ml of any of the nine monoclonal antibodies purified by using PROTEIN G SEPHAROSE, at ambient temperature for one hour, and washed with 50 mM Tris-HCl buffer (pH 7.5) containing 0.05% (v/v) tween 20 to remove excessive amounts of antibodies. The resulting nitrocellulose membrane was soaked in a solution containing an HRP labelled anti-mouse immunoglobulin or anti-rat immunoglobulin (both of which are commercialized by DakoCytomation, Denmark) at ambient temperature for one hour. The resulting membrane was washed with 50 mM Tris-HCl buffer (pH 7.5) containing 0.05% (v/v) tween 20 for 30 min and subjected to a color reaction by using commercialized “ECL western blotting detection reagent and Hyperfilm ECL”, a product name of a Western blotting detection kit commercialized by GE Healthcare Biosciences, Tokyo, Japan.

[2] = target: T2, recombinant human IFNα subtype α5 (human, UniProt P01569 24-189, limits assumed)
T2 construct: also called rIFNα5; IFNα5
Source text: as §1

[3] = target: T3, recombinant human IFNα subtype α6 (human, UniProt P05013 24-189, limits assumed)
T3 construct: also called rIFNα6; IFNα6
Source text: as §1

[4] = target: T4, recombinant human IFNα subtype α10 (human, UniProt P01566 24-189)
T4 construct: also called rIFNα10; IFNα10
Source text: as §1

human IFNβ = human IFNβ (human, UniProt P01574 22-187)
human IFNγ = target: T5, human IFNγ (human, UniProt P01579 24-166, limits assumed)
T5 sequence (looked up): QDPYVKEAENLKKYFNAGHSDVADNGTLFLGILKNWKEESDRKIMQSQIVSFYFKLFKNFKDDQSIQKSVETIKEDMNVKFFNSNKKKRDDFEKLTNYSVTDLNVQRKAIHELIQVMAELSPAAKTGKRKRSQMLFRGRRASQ

[5] = target: T6, human tumor necrosis factor (human, UniProt P01375 77-233)
T6 construct: also called human TNFα; TNFα
T6 sequence (P01375 77-233 limits assumed): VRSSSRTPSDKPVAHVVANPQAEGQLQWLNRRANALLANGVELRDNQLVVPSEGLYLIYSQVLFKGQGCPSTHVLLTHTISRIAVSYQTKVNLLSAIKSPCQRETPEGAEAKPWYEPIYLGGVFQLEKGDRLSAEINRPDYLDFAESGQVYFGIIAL

T1 sequence (P0DY56 entry or part of it limits assumed): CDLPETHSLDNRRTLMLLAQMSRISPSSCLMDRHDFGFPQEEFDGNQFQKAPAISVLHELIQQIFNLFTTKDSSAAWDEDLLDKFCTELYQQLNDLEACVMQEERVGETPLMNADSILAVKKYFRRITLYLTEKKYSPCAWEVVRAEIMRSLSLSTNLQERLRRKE
T3 sequence (P05013 24-189 limits assumed): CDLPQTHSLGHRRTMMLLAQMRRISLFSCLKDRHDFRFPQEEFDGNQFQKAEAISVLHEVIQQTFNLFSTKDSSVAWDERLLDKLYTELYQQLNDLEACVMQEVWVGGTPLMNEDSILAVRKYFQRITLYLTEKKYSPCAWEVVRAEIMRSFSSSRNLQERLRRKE
T4 sequence (P01566 24-189 limits assumed): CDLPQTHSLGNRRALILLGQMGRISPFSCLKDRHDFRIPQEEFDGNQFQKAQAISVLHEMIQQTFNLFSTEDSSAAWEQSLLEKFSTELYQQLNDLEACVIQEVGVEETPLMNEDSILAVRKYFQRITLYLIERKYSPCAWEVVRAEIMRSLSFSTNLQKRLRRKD
T2 sequence (P01569 24-189 limits assumed): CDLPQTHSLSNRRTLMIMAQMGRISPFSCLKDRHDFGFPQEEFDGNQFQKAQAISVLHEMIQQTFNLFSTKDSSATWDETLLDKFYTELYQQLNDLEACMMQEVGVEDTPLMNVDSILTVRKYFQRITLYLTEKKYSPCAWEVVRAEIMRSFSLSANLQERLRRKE
Chain of human IFNβ (P01574 22-187 limits assumed): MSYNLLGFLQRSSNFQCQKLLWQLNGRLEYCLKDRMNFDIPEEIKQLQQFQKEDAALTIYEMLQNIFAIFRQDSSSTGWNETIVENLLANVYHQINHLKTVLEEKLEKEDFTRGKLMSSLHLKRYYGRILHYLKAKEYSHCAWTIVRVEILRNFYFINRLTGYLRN

binding result [1]: no binding
binding result [2]: no binding
binding result [3]: no binding
binding result [4]: no binding
binding result (human IFNβ): no binding
binding result (human IFNγ): no binding
B1: α8#139 mAb (antibody, IgG1, V domains shown)
VH: QVQLKQSGPGLVQPSQSLSITCTVSGFSLTSYGVHWIRQSPGKGLEWLGVIWSGGNTDYNAAFISRLSITKDNSKSQFFFKMNSLQAKDTAIYYCARGRGNYVPFTYWGQGTLVTVSA
VL: QIVLTQSPTIMSASLGERVTMTCTASSSVSSTYLHWYQQKPGSSPKLLIYSTSNLASGVPARFSGSGSGTSYSLTISNMEAEDAATYYCHQYHRSPPMTFGGGTKLEIK
notes: HRP-labelled where used as labelled antibody; also called FERM BP-11081
binding result [5]: no binding

binding result [1]: no binding
binding result [2]: no binding
binding result [3]: no binding
binding result [4]: no binding
binding result (human IFNβ): no binding
binding result (human IFNγ): no binding
B2: α8Y36-2 mAb (antibody, IgG1, V domains shown)
VH: EVQLVESGGGLVQPGRSLKLSCAASGFTFSKYGMAWVRQAPTKGLEWVASISTGGYNTYYRDSVKGRFTISRDNAKNTQYLQMDSLRSEDTATYYCTRPPAFDHWGQGIMVTVSS
VL: DIKMTQSPSFLSASVGDRVTINCKASQNIDKYLNWYQQKLGKAPRLLMYNTNNLQTGIPSRFSGSGSTTDFTLTISSLQPEDVATYFCSHHSVRPYTFGAGTKLELK
notes: also called mAb-IFNα8Y36-2; FERM BP-11082
binding result [5]: no binding
